The data set deals with carcinoembryonic antigen (CEA) (UniProt P06731 35-685). Put plainly: electrochemical impedance spectroscopy; CEA 0.2-15.0 ng/ml linear range; LOD 0.085 ng/ml (not a Kd); CEA incubated on electrode 1 h at 37 C (70 min found optimal), wash with 0.01 M [Fe(CN)6] PBS pH 7.4; EIS in 5 mM [Fe(CN)6]3-/4-, 0.1 M PBS pH 7.0, KCl (0.1 M or 1 M, stated inconsistently). Particulars: protein: commercial.
Sequence of carcinoembryonic antigen (CEA) (P06731 35-685): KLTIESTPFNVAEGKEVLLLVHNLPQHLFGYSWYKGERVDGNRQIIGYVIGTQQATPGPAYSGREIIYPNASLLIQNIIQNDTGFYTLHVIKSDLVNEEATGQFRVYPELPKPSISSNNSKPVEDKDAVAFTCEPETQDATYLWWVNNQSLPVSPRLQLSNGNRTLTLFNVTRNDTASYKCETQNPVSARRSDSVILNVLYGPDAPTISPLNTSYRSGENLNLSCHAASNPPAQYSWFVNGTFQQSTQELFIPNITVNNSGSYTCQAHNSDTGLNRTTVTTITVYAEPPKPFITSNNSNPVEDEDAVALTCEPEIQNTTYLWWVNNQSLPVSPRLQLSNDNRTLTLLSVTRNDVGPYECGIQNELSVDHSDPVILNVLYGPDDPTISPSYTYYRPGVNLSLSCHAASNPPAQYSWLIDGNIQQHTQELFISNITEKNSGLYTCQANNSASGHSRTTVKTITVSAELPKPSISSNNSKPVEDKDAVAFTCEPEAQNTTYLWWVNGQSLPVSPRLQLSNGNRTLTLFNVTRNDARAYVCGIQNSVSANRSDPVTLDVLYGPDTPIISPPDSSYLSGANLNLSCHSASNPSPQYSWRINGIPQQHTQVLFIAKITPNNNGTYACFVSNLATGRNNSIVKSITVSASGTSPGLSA

For the molecule ATACCAGCTTATTCAATT (ssDNA, 5'-SH (thiol)) [CEA aptamer (CEA-A)], the binding result was “binds”.

The values above are taken from paper PMC8326396, “Label-free Electrochemical Impedance Spectroscopy Aptasensor for Ultrasensitive Detection of Lung Cancer Biomarker Carcinoembryonic Antigen”.
